{"source": "patent US20170081400A1", "about": "(CEPHALON, published 2017)", "binders": {"B1": {"name": "320-184 (antibody, human IgG1, name in Kabat numbering, V domains shown)", "VH": "QVQLVQSGAEVKKPGASVKVSCKASGYTFTSYDINWVRQAPGQGLEWMGWLNPNSGNTGYAQKFQGRVTMTADRSTSTAYMELSSLRSEDTAVYYCAREVPETAAFEYWGQGTLVTVSS", "VL": "QSVLTQPPSVSGAPGQRVTISCTSSSSDIGAGLGVHWYQQLPGTAPKLLIEGYYNRPSGVPDRFSGSKSGTSASLTITGLAPEDEGDYYCQSYDGTLSALFGGGTKLTVLG", "notes": "human IgG1, lambda"}, "B2": {"name": "320-185 (antibody, human IgG1, name in Kabat numbering, V domains shown)", "VH": "B1 VH", "VL": "B1 VL with A81S", "notes": "human IgG1, lambda"}, "B3": {"name": "320-595 (antibody, human IgG1, name in Kabat numbering, V domains shown)", "VH": "B1 VH with N57Y", "VL": "B1 VL with H36L, A81L, Y93W", "notes": "full-length human IgG1, lambda"}, "B4": {"name": "320-593 (antibody, human IgG1, name in Kabat numbering, V domains shown)", "VH": "B1 VH with N57Y", "VL": "B1 VL with L33S, A81L, Y93W", "notes": "as for B3"}, "B5": {"name": "320-594 (antibody, human IgG1, name in Kabat numbering, V domains shown)", "VH": "B1 VH with N57Y", "VL": "B1 VL with L33Q, A81L, Y93W", "notes": "as for B3"}, "B6": {"name": "320-588 (antibody, human IgG1, name in Kabat numbering, V domains shown)", "VH": "B1 VH with N57Y", "VL": "B1 VL with G32A, A81L", "notes": "as for B3"}, "B7": {"name": "320-589 (antibody, human IgG1, name in Kabat numbering, V domains shown)", "VH": "B1 VH with N57Y", "VL": "B1 VL with L33S, A81L", "notes": "as for B3"}, "B8": {"name": "320-592 (antibody, human IgG1, name in Kabat numbering, V domains shown)", "VH": "B1 VH with N57Y", "VL": "B1 VL with G32A, A81L, Y93W", "notes": "as for B3"}, "B9": {"name": "320-590 (antibody, human IgG1, name in Kabat numbering, V domains shown)", "VH": "B1 VH with N57Y", "VL": "B1 VL with L33Q, A81L", "notes": "as for B3"}, "B10": {"name": "320-591 (antibody, human IgG1, V domains shown)", "VH": "B1 VH with N57Y", "VL": "B1 VL with H36L, A81L", "notes": "as for B3"}}, "key": {"[1]": {"target": "T1, human TL1A extracellular domain with N-terminal HIS and FLAG tag (human, UniProt O95150 72-251)", "T1 construct": "whole entry named. ~70 kDa fraction purified by gel filtration", "T1 sequence": "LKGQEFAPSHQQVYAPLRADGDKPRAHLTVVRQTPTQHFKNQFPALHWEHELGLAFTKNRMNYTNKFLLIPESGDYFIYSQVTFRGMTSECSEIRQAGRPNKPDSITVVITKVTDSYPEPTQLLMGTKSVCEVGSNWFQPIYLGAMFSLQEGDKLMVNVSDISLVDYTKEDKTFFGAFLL", "test": "SPR run 1; purified antibody on Protein A; TL1A 10 ug/mL; timepoint 590", "excerpt": "(§1) 1.5. Antibody expression and antigen binding as determined by SPR. Using a CM5 sensor chip (GE Healthcare) Protein A (Pierce) was coupled to the chip surface using an amine coupling kit (GE Healthcare). Protein A was coupled on flow cell 1 and 2 (or alternatively 3 and 4) using a BIACORE® T200. […] The amount of supernatant or purified protein (as well as the concentration) injected during the capture stage varied between runs and is specified in the header of the Tables 3-11. At the end of injection of the supernatant or purified antibody the change in response units was measured. This value was reported as Capture Level in Tables 3-11. […] The response units were measured prior to the end of the dissociation phase. […] The sensorgrams were double referenced (flow cell 2 is subtracted from flow cell 1 and a buffer blank). As there were a large number of antibody variants to screen, these were screened across different runs (Tables 3-11). […] A summary of the conditions used in each run is below:\n(§2) 2.1. […] In some experiment the antibodies were purified using Protein A chromatography (See 1.4) and purified antibodies were used in BIACORE® (GE Healthcare) experiments."}, "[2]": {"target": "T2, human TL1A extracellular domain with N-terminal HIS and FLAG tag (human) (UniProt O95150)", "T2 sequence": "T1 sequence", "test": "cell-based or functional assay"}, "[3]": {"target": "T1, human TL1A extracellular domain with …", "test": "SPR run 1; purified antibody on Protein A; TL1A 10 ug/mL; timepoint 59", "excerpt": "as §1, §2"}, "[4]": {"target": "T3, human TL1A extracellular domain with N-terminal HIS and FLAG tag (human, UniProt O95150 72-251)", "T3 construct": "the whole entry is named; also called TNFSF15", "T3 sequence": "T1 sequence", "test": "SPR Run 8, antibody on Protein A, TL1A 5 ug/mL, timepoint 590", "excerpt": "as §1, §2"}, "[5]": {"target": "T3, human TL1A extracellular domain with …", "test": "cell-based or functional assay"}, "[6]": {"target": "T3, human TL1A extracellular domain with …", "test": "SPR Run 8, antibody on Protein A, TL1A 5 ug/mL, timepoint 44", "excerpt": "as §1, §2"}}, "note": "Where a chain is given by its changes, count along the chain named."}
{"binder": "B1", "values": [{"measurement": "TL1A Binding Level (Late)", "setting": "[1]", "result": 118, "unit": "RU"}, {"measurement": "Antibody IC50, TL1A induced caspase potency assay in TF-1 cells", "setting": "[2]", "result": 10, "unit": "ng/mL"}, {"measurement": "Fold improvement over 320-179, TL1A induced caspase potency assay in TF-1 cells", "setting": "[2]", "result": 3, "unit": "fold"}, {"measurement": "TL1A Binding Level (Early)", "setting": "[3]", "result": 141, "unit": "RU"}]}
{"binder": "B2", "values": [{"measurement": "TL1A Binding Level (Late)", "setting": "[1]", "result": 114, "unit": "RU"}, {"measurement": "Antibody IC50, TL1A induced caspase potency assay in TF-1 cells", "setting": "[2]", "result": 20, "unit": "ng/mL"}, {"measurement": "Fold improvement over 320-179, TL1A induced caspase potency assay in TF-1 cells", "setting": "[2]", "result": 2, "unit": "fold"}, {"measurement": "TL1A Binding Level (Early)", "setting": "[3]", "result": 137, "unit": "RU"}]}
{"binder": "B3", "values": [{"measurement": "TL1A Binding Level (Late)", "setting": "[4]", "result": 128, "unit": "RU"}, {"measurement": "Antibody IC50, TL1A induced caspase potency assay in TF-1 cells", "setting": "[5]", "result": 3, "unit": "ng/mL"}, {"measurement": "Fold improvement over 320-179, TL1A induced caspase potency assay in TF-1 cells", "setting": "[5]", "result": 20, "unit": "fold"}, {"measurement": "TL1A Binding Level (Early)", "setting": "[6]", "result": 129, "unit": "RU"}]}
{"binder": "B4", "values": [{"measurement": "TL1A Binding Level (Late)", "setting": "[4]", "result": 124, "unit": "RU"}, {"measurement": "Antibody IC50, TL1A induced caspase potency assay in TF-1 cells", "setting": "[5]", "result": 4, "unit": "ng/mL"}, {"measurement": "Fold improvement over 320-179, TL1A induced caspase potency assay in TF-1 cells", "setting": "[5]", "result": 15, "unit": "fold"}, {"measurement": "TL1A Binding Level (Early)", "setting": "[6]", "result": 126, "unit": "RU"}]}
{"binder": "B5", "values": [{"measurement": "TL1A Binding Level (Late)", "setting": "[4]", "result": 132, "unit": "RU"}, {"measurement": "Antibody IC50, TL1A induced caspase potency assay in TF-1 cells", "setting": "[5]", "result": 5, "unit": "ng/mL"}, {"measurement": "Fold improvement over 320-179, TL1A induced caspase potency assay in TF-1 cells", "setting": "[5]", "result": 12, "unit": "fold"}, {"measurement": "TL1A Binding Level (Early)", "setting": "[6]", "result": 134, "unit": "RU"}]}
{"binder": "B6", "values": [{"measurement": "TL1A Binding Level (Late)", "setting": "[4]", "result": 123, "unit": "RU"}, {"measurement": "Antibody IC50, TL1A induced caspase potency assay in TF-1 cells", "setting": "[5]", "result": 4, "unit": "ng/mL"}, {"measurement": "Fold improvement over 320-179, TL1A induced caspase potency assay in TF-1 cells", "setting": "[5]", "result": 5, "unit": "fold"}, {"measurement": "TL1A Binding Level (Early)", "setting": "[6]", "result": 128, "unit": "RU"}]}
{"binder": "B7", "values": [{"measurement": "TL1A Binding Level (Late)", "setting": "[4]", "result": 109, "unit": "RU"}, {"measurement": "Antibody IC50, TL1A induced caspase potency assay in TF-1 cells", "setting": "[5]", "result": 20, "unit": "ng/mL"}, {"measurement": "Fold improvement over 320-179, TL1A induced caspase potency assay in TF-1 cells", "setting": "[5]", "result": 1, "unit": "fold"}, {"measurement": "TL1A Binding Level (Early)", "setting": "[6]", "result": 120, "unit": "RU"}]}
{"binder": "B8", "values": [{"measurement": "TL1A Binding Level (Late)", "setting": "[4]", "result": 129, "unit": "RU"}, {"measurement": "Antibody IC50, TL1A induced caspase potency assay in TF-1 cells", "setting": "[5]", "result": 3, "unit": "ng/mL"}, {"measurement": "Fold improvement over 320-179, TL1A induced caspase potency assay in TF-1 cells", "setting": "[5]", "result": 7, "unit": "fold"}, {"measurement": "TL1A Binding Level (Early)", "setting": "[6]", "result": 128, "unit": "RU"}]}
{"binder": "B9", "values": [{"measurement": "TL1A Binding Level (Late)", "setting": "[4]", "result": 121, "unit": "RU"}, {"measurement": "Antibody IC50, TL1A induced caspase potency assay in TF-1 cells", "setting": "[5]", "result": 6, "unit": "ng/mL"}, {"measurement": "Fold improvement over 320-179, TL1A induced caspase potency assay in TF-1 cells", "setting": "[5]", "result": 3, "unit": "fold"}, {"measurement": "TL1A Binding Level (Early)", "setting": "[6]", "result": 130, "unit": "RU"}]}
{"binder": "B10", "values": [{"measurement": "TL1A Binding Level (Late)", "setting": "[4]", "result": 124, "unit": "RU"}, {"measurement": "Antibody IC50, TL1A induced caspase potency assay in TF-1 cells", "setting": "[5]", "result": 2, "unit": "ng/mL"}, {"measurement": "Fold improvement over 320-179, TL1A induced caspase potency assay in TF-1 cells", "setting": "[5]", "result": 10, "unit": "fold"}, {"measurement": "TL1A Binding Level (Early)", "setting": "[6]", "result": 132, "unit": "RU"}]}
